pKd: −log10 of the molar value.
Molecular target: human recombinant prion protein hrPrP (PrP23-231) (Homo sapiens) (UniProt P04156)
Assay: FP filter
[1] = no tRNA, 250 mM NaCl, 2 mM MgCl2, 37 C

## MDV (244 nt)
[1]
  pKd: 8.12
With tRNA competitor
  pKd: 6.77

## MNV (86 nt)
[1]
  pKd: 7.42
With tRNA competitor
  pKd: 6.00

From patent US20050239072
